Assay results reported in paper PMC3861647, “Characterization of Fibrinogen Binding by Glycoproteins Srr1 and Srr2 of Streptococcus agalactiae*” (The Journal of Biological Chemistry, 2013).

Legend:
[1] = target: T1, Srr2-BR (untagged recombinant binding region of Srr2) (Streptococcus agalactiae (strain COH1)); assay: SPR; BIAcore T100; fibrinogen amine-coupled to a CM5 chip; Srr1-BR or Srr2-BR 1.25–160 μM flowed at 10 μl/min; KD from equilibrium responses; conditions: both partners purified
T1 construct: I took it to be this one; also called untagged Srr2-BR; recombinant Srr2; source: E. coli, purified (nickel-nitrilotriacetic acid or anti-FLAG M2-agarose)
T1 sequence (P02671 36-866): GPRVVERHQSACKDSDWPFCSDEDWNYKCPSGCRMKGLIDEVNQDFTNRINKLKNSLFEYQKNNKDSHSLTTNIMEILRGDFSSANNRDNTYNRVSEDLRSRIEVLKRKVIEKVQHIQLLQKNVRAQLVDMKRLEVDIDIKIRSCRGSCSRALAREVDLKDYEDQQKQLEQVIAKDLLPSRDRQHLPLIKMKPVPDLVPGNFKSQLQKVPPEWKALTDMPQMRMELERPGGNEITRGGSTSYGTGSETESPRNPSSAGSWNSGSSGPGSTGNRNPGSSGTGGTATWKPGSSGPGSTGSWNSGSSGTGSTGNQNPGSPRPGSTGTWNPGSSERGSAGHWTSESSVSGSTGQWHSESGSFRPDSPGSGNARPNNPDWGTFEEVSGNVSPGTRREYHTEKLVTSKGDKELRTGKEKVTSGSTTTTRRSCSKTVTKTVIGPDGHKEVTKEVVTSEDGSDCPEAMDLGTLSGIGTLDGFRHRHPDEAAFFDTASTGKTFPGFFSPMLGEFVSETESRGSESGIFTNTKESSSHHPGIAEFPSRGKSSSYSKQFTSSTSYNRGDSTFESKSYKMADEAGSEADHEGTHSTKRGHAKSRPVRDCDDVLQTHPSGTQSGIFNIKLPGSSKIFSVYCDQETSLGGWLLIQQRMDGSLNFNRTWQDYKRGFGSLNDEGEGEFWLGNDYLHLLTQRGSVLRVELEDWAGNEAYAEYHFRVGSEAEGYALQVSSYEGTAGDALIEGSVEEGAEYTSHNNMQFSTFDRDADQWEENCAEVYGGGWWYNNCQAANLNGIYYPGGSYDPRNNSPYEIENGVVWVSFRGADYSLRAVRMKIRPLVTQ

[2] = target: T2, Srr1-BR (untagged recombinant binding region of Srr1) (Streptococcus agalactiae (strain NCTC …)); assay: as above; conditions: both partners purified
T2 construct: I took it to be this one; also called untagged Srr1-BR; recombinant Srr1; source: E. coli, purified (nickel-nitrilotriacetic acid or anti-FLAG M2-agarose)
T2 sequence (P02671 36-866): as above

B1: purified human fibrinogen (complex)
chain 1: ADSGEGDFLAEGGGVRGPRVVERHQSACKDSDWPFCSDEDWNYKCPSGCRMKGLIDEVNQDFTNRINKLKNSLFEYQKNNKDSHSLTTNIMEILRGDFSSANNRDNTYNRVSEDLRSRIEVLKRKVIEKVQHIQLLQKNVRAQLVDMKRLEVDIDIKIRSCRGSCSRALAREVDLKDYEDQQKQLEQVIAKDLLPSRDRQHLPLIKMKPVPDLVPGNFKSQLQKVPPEWKALTDMPQMRMELERPGGNEITRGGSTSYGTGSETESPRNPSSAGSWNSGSSGPGSTGNRNPGSSGTGGTATWKPGSSGPGSTGSWNSGSSGTGSTGNQNPGSPRPGSTGTWNPGSSERGSAGHWTSESSVSGSTGQWHSESGSFRPDSPGSGNARPNNPDWGTFEEVSGNVSPGTRREYHTEKLVTSKGDKELRTGKEKVTSGSTTTTRRSCSKTVTKTVIGPDGHKEVTKEVVTSEDGSDCPEAMDLGTLSGIGTLDGFRHRHPDEAAFFDTASTGKTFPGFFSPMLGEFVSETESRGSESGIFTNTKESSSHHPGIAEFPSRGKSSSYSKQFTSSTSYNRGDSTFESKSYKMADEAGSEADHEGTHSTKRGHAKSRPV
chain 2: QGVNDNEEGFFSARGHRPLDKKREEAPSLRPAPPPISGGGYRARPAKAAATQKKVERKAPDAGGCLHADPDLGVLCPTGCQLQEALLQQERPIRNSVDELNNNVEAVSQTSSSSFQYMYLLKDLWQKRQKQVKDNENVVNEYSSELEKHQLYIDETVNSNIPTNLRVLRSILENLRSKIQKLESDVSAQMEYCRTPCTVSCNIPVVSGKECEEIIRKGGETSEMYLIQPDSSVKPYRVYCDMNTENGGWTVIQNRQDGSVDFGRKWDPYKQGFGNVATNTDGKNYCGLPGEYWLGNDKISQLTRMGPTELLIEMEDWKGDKVKAHYGGFTVQNEANKYQISVNKYRGTAGNALMDGASQLMGENRTMTIHNGMFFSTYDRDNDGWLTSDPRKQCSKEDGGGWWYNRCHAANPNGRYYWGGQYTWDMAKHGTDDGVVWMNWKGSWYSMRKMSMKIRPFFPQQ
chain 3: YVATRDNCCILDERFGSYCPTTCGIADFLSTYQTKVDKDLQSLEDILHQVENKTSEVKQLIKAIQLTYNPDESSKPNMIDAATLKSRKMLEEIMKYEASILTHDSSIRYLQEIYNSNNQKIVNLKEKVAQLEAQCQEPCKDTVQIHDITGKDCQDIANKGAKQSGLYFIKPLKANQQFLVYCEIDGSGNGWTVFQKRLDGSVDFKKNWIQYKEGFGHLSPTGTTEFWLGNEKIHLISTQSAIPYALRVELEDWNGRTSTADYAMFKVGPEADKYRLTYAYFAGGDAGDAFDGFDFGDDPSDKFFTSHNGMQFSTWDNDNDKFEGNCAEQDGSGWWMNKCHAGHLNGVYYQGGTYSKASTPNGYDNGIIWATWKTRWYSMKKTTMKIIPFNRLTIGEGQQHHLGGAKQAGDV
modifications: plasma-derived disulfide-linked hexamer (AαBβγ)2, N-glycosylated; Aα taken as the 610-residue circulating form (paper's Aα(1-610)), γ as the major γA form with the C-terminus printed in the text …
**Q.** B1 was tested. Which Kd [1] did it give?
**A.** The Kd was 3.7 µM.

**Q.** And the Kd [2]?
**A.** Its Kd is 21 µM.
